Patent US20060233822A1 (YANG SHENG TANG, published 2006)

Assays:
polypeptide 209 = polypeptide 209 (hepatitis E virus); assay: ELISA with 8C11
7-peptide ALWGPTS = assay: phage display panning on coated MAb; 2 clones
7-peptide SAHVLST = assay: phage display panning on coated MAb; 1 clone
7-peptide STLFMNF = assay: phage display panning on coated MAb; 1 clone
7-peptide SPKMPIL = assay: phage display panning on coated MAb; 1 clone
7-peptide SPPNVRT = assay: phage display panning on coated MAb; 1 clone
C149-mut-8H3 = target: T1, C149-mut-8H3; assay: dot blot of E. coli lysate supernatant
T1 chain: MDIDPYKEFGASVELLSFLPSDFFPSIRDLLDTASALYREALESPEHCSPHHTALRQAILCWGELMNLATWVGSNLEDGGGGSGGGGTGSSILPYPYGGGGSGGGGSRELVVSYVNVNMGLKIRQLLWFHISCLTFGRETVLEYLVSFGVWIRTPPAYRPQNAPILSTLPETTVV

7-peptide SLPTLTL = assay: phage display panning on coated MAb; 1 clone
7-peptide ITNDFKQ = assay: phage display panning on coated MAb; 1 clone
7-peptide PVQMPWL = assay: phage display panning on coated MAb; 1 clone
7-peptide HPTLLRI = assay: phage display panning on coated MAb; 5 clones
C149-mut-8C11 = assay: dot blot of E. coli lysate supernatant
7-peptide YQDSAKT = assay: phage display panning on coated MAb; 2 clones
7-peptide SSYEWFI = assay: phage display panning on coated MAb; 1 clone
7-peptide SLVTGIL = assay: phage display panning on coated MAb; 1 clone
7-peptide NHWASPR = assay: phage display panning on coated MAb; 1 clone
7-peptide VSWNSLV = assay: phage display panning on coated MAb; 1 clone
7-peptide SAPSSKN = assay: phage display panning on coated MAb; 1 clone
7-peptide SSMFFYR = assay: phage display panning on coated MAb; 1 clone
7-peptide INQKPTL = assay: phage display panning on coated MAb; 1 clone

B1: monoclonal antibody 8H3 (antibody, V domains shown)
VH: QVQLKESGPGLVAPSQSLSITCTVSGFSLIGYGVNWVRQPPEKGLEWLGMIWGDGSTDYNSALKSRLSITKDNSKSQVFLKMNSLQTDDTARYYCAMGVRPDPFDYWGQGTLVTVSA
VL: NIMMTQSPSSLAVSAGEKVTMSCKSSQSVLYSSNQKNYLAWYQQKPGQSPKLLIYWASARESGVPDRFTGSGSGTDFTLTINSVQTEDLAVYYCHQYLSSYTFGGGTKLEIKR
notes: also called MAb 8H3; HRP-8H3
8C11 increases 8H3's reactivity (polypeptide 209): 3 fold
binding result (7-peptide ALWGPTS): binds
binding result (7-peptide SAHVLST): binds
binding result (7-peptide STLFMNF): binds
binding result (7-peptide SPKMPIL): binds
binding result (7-peptide SPPNVRT): binds
binding result (C149-mut-8H3): binds

B2: monoclonal antibody 8C11 (antibody, V domains shown)
VH: QVTLKESGPGILQPSQTLSLTCSFSGFSLSTSGMGVGWIRQPSGKGLEWLAHIWWDDVKRYSPALKSRLTISKDTSSSQLFLKIASVDTADTATYYCARIKSVITTGDYALDYWGQGTSVAVSS
VL: DIQMTQSPASLSVSVGETVTITCRASEIIYSNLAWYQQKQGKSPQLLVYSATNLAEGVPSRFSGSGSGTQYSLKINSLQSEDFGSYYCQHFWGNPWTFGGGTKLEIKR
notes: also called MAb 8C11; HRP-8C11
binding result (7-peptide SLPTLTL): binds
binding result (7-peptide ITNDFKQ): binds
binding result (7-peptide PVQMPWL): binds
binding result (7-peptide HPTLLRI): binds
binding result (C149-mut-8C11): binds

B3: monoclonal antibody 13D8 (antibody, V domains shown)
VH: DVQLQESGPGLVKPSQSLSLSCSVTGYSITSGYYWNWIRQFPGNKLEWMGYIGYDGSNKYNPSLKNRISITRDTSKNQFFLKLTSVTTGDTATYYCVRDVKYYFDYWGQGTTVTVSS
VL: DIQMTQSPASLSVSVGETVTITCRASENIYSNLAWYQQKQGKSPQLLVYAATNLADGVPSRFSGSGSGTQYSLKISSLQSEDFGSYYCQHFWGSPWTFGGGTKLEIKR
notes: also called MAb 13D8; HRP-13D8
binding result (7-peptide YQDSAKT): binds
binding result (7-peptide SSYEWFI): binds
binding result (7-peptide SLVTGIL): binds
binding result (7-peptide NHWASPR): binds
binding result (7-peptide VSWNSLV): binds
binding result (7-peptide SAPSSKN): binds
binding result (7-peptide SSMFFYR): binds
binding result (7-peptide INQKPTL): binds
